Measurements: US20240132622A1 (Bristol-Myers Squibb, published 2024)

Key:
recombinant human PAD4 [1] = target: T1, recombinant human PAD4 (human, UniProt Q9UM07 1-663); experiment: SPR 37 C, captured antibody, PAD4 analyte, 1 mM CaCl2; 1 mM CaCl2, 37 C; mean of two or three experiments
T1 construct: also called rhPAD4; hPAD4
Description: For SPR measurements, either an anti-human capture surface or Protein A surface (Cytiva catalog #29127555) was used. Anti-human capture surface was prepared by immobilizing anti-human capture antibody (Cytiva catalog #29234600) onto flow cells of a CM5 or CM4 biosensor following the manufacturer's amine coupling protocol (Cytiva catalog #BR-1006-33). SPR experiments were conducted at 37° C. using HBS-P (150 mM NaCl, 10 mM HEPES, pH 7.6, 0.05% Tween-20) (TEKNOVA catalog #H8032) with additional 150 mM NaCl and 1 mM or 2 mM CaCl₂) (see Table 2) or 2 mM EDTA (see Table 3) as running buffer. Antibodies were diluted to 1.5 μg/mL in the running buffer, and were captured across active biosensor flow cells at 10 μL/min for 15 to 30 seconds. […] The association and dissociation of the antibodies with PAD4 were measured. One 30 second injection followed by one 15 second injection of 10 mM glycine pH 1.5 was used to regenerate the Protein A capture surface between assay cycles. For anti-human capture surface, two 30 second injections of 3 M MgCl₂ was used for regeneration. […]
Rate constants kₒₙ and koff were derived from reference flow cell- and 0 nM blank-subtracted sensorgrams, and were fit to a 1:1 binding model in Biacore® Insight Evaluation software version 3.0.12.15655. […] The equilibrium dissociation constant, KD, was calculated as the ratio of rate constants koff/kₒₙ for each PAD4 antibody. […]

recombinant human PAD4 [2] = target: T1, recombinant human PAD4; experiment: SPR 37 C, captured antibody, PAD4 analyte, 2 mM EDTA
recombinant human PAD4 [3] = target: T1, recombinant human PAD4; experiment: cell-based or functional assay
recombinant human PAD4 [4] = target: T1, recombinant human PAD4; experiment: SPR 37 C, captured antibody, PAD4 analyte, 1 mM CaCl2
[5] = target: extracellular matrix (ECM) proteins; experiment: ECM plate ELISA (Matrigel), 1 uM antibody, A450 over wells without sample

T1 sequence (Q9UM07 whole entry): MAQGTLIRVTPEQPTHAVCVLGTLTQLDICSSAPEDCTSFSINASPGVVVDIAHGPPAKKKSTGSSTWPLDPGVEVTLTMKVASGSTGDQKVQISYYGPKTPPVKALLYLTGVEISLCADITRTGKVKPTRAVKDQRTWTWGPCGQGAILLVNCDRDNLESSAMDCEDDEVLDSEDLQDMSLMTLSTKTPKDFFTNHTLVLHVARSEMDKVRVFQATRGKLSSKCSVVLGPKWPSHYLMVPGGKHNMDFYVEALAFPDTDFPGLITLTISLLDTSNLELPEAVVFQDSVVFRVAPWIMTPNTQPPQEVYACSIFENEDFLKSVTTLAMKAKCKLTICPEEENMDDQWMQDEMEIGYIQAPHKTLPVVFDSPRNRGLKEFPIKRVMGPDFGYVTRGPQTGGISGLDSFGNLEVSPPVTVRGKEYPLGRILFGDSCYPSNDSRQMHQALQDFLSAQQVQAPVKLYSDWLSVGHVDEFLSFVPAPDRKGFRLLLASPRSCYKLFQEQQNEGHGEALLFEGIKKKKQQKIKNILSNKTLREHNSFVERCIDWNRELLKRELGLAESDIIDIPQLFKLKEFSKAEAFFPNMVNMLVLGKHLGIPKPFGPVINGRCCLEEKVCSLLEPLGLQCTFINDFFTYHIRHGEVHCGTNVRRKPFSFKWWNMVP

B1: hz20-1 (antibody, V domains shown)
VH: QVQLVQSGAEVKKPGASVKVSCKASGYTFTNYGISWVRQAPGQGLEWMGEIYPRSGNTYHNEKFKDRVTMTRDTSTSTVYMELSSLRSEDTAVYYCARSMITTRYWYFDVWGKGTTVTVSS
VL: DIVMTQSPDSLAVSLGERATINCRASESVDTYGNSFMHWYQQKPGQPPKLLIYLASNLESGVPDRFSGSGSGTDFTLTISSLQAEDVAVYYCQQNNEDPLTFGAGTKLELK
notes: light constant region not tied to this antibody
kon (recombinant human PAD4 [1]): 550000 M⁻¹ s⁻¹
Kd (recombinant human PAD4 [2]): 2.6 nM
koff (recombinant human PAD4 [2]): 0.00054 s⁻¹
kon (recombinant human PAD4 [2]): 220000 M⁻¹ s⁻¹
IC50 (average), PAD4 citrullination of peptide …, RapidFire MS (recombinant human PAD4 [3]): 77 nM
Kd (recombinant human PAD4 [4]): 2.7 nM
koff (recombinant human PAD4 [4]): 0.00089 s⁻¹
ECM Score (1 µM) [5]: 1
